The results in this text go back to patent US6090631.

Experiment [1] deals with GST-syntaxin 1A fusion protein, full-length (2-289) (rat). As to the kind of experiment: GST-syntaxin 1A pull-down (5 µM GST-syntaxin, 10 µM fusion protein), immunoblot.
For experiment [2] the target is unchanged. As to the kind of experiment: competition on GST-syntaxin beads against 125I-ω-CTx-GVIA-labeled N-type channels.
Experiment [3] has as its target GST alone (Schistosoma japonicum (Blood fluke)) [GST: P08515]. The experiment in a line: 125I-ω-CTx-GVIA-labeled channels on GST beads, direct counting.
The target of experiment [4] is GST-syntaxin 1A fusion protein, full-length (2-289) (rat). As to the kind of experiment: titration on GST-syntaxin beads, immunoblot. Background: In western blotting, separated proteins are transferred to a membrane and probed.
In experiment [5] the target is GST fusion protein including full-length SNAP-25 (Mus musculus (Mouse)) (UniProt P60879). The experiment in a line: titration on GST-SNAP-25 beads, immunoblot.
Experiment [6] deals with GST-syntaxin 1A fusion protein, full-length (2-289) (rat). The experiment in a line: GST-syntaxin pull-down at equal concentrations, immunoblot.

Regarding His-LII-III (718-859), the pixel value (phosphorimaging of bound fusion protein, FIG. 14) in experiment [1] was 45 pixel value.

In experiment [2], His-LII-III (773-859) gave a percent reduction in the specific binding of labeled N-type channels to GST-syntaxin of 78%.

In the case of His-LII-III (832-963), the pixel value (phosphorimaging of bound fusion protein, FIG. 14) in experiment [1] was 751 pixel value.

Consider His-LII-III (1027-1145), for which, in experiment [2], the percent reduction in the specific binding of labeled N-type channels to GST-syntaxin was 10%.

Regarding “[125I]-ω-CTx-GVIA-labeled N-type calcium channels, partially purified from rat brain (from UniProt Q02294)”, the cpm of labeled channels bound in experiment [3] came out at 549 cpm.

With hBI 722-1036, the half-maximal saturation is 2 µM in experiment [4] and 1 to 2 µM in experiment [5].

In experiment [4], rbB 718-963 displayed a fold greater affinity than hBI 722-1036 of 10 fold and a half-maximal saturation of 0.2 µM. In experiment [1], this substance gave a pixel value (phosphorimaging of bound fusion protein, FIG. 14) of 1650 pixel value. The same substance had a fold higher affinity than rbB 718-859 in experiment [6] of 40 fold.
